From IntAct's records for PubMed 21565615

B1: Protein c-Fos (Mus musculus), P01101 (parent)
chain: MMFSGFNADYEASSSRCSSASPAGDSLSYYHSPADSFSSMGSPVNTQDFCADLSVSSANFIPTVTAISTSPDLQWLVQPTLVSSVAPSQTRAPHPYGLPTQSAGAYARAGMVKTVSGGRAQSIGRRGKVEQLSPEEEEKRRIRRERNKMAAAKCRNRRRELTDTLQAETDQLEDEKSALQTEIANLLKEKEKLEFILAAHRPACKIPDDLGFPEEMSVASLDLTGGLPEASTPESEEAFTLPLLNDPEPKPSLEPVKSISNVELKAEPFDDFLFPASSRPSGSETSRSVPDVDLSGSFYAADWEPLHSNSLGMGPMVTELEPLCTPVVTCTPGCTTYTSSFVFTYPEADSFPSCAAAHRKGSSSNEPSSDSLSSPTLLAL

Variants of: B1
Conditions: with esr2_mouse Esr2, O08537
esr2_mouse Esr2, O08537, sequence (O08537 whole entry): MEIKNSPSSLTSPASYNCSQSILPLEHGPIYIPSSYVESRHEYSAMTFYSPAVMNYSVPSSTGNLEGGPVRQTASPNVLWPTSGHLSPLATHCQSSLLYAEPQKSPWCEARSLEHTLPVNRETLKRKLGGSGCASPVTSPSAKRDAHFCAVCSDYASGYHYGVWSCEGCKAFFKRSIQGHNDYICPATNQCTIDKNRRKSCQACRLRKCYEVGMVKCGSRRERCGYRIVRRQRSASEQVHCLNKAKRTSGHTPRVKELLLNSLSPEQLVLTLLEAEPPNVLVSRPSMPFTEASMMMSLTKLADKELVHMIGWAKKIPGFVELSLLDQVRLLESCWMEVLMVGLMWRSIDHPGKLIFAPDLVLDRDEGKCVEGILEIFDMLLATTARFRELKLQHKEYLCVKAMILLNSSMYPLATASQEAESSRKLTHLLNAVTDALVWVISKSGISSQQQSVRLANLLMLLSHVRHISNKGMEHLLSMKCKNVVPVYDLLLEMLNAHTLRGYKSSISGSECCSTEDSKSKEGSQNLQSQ

Row | Variant | effect of a mutation on the interaction
1 | S362A | decreasing interaction
2 | S362E | increasing interaction
